The data set deals with the molecule itself. The data set is described as follows: X-ray crystal structure, homotetramer. As for the experimental part: Molecular replacement was carried out using the program MOLREP from the CCCP4i-program suite with the coordinates of bovine AQP1 (PDB entry 1J4N) (SEQ ID NO: 38) as the model. Using two copies of the model in the molecular replacement search, a clear solution with a correlation coefficient and R-factor of 34.3% and 53.1% respectively was found. The crystal packing was checked using the program O (30) and there were no overlaps between molecules. Automated model building was carried out using ARP/WARP (31) and the resulting model was docked to the correct sequence using GUISIDE2. The calculated electron density map at this stage was already of very good quality. Water molecules were picked using ARP/WARP. The model was subjected to multiple rounds of refinement in REFMAC5 (29), NCSREF (29) and CNS (32) with manual rebuilding in O between each round. During refinement, NCS restraints between the two molecules in the asymmetric unit (molecule A and B) were used. […] The R-factor and Rfree are 18.1% and 20.8% respectively. The quality of the structure was checked in PROCHECK (33).

B1: SoPIP2;1, plasma membrane aquaporin of spinach (other)
chain: MSKEVSEEAQAHQHGKDYVDPPPAPFFDLGELKLWSFWRAAIAEFIATLLFLYITVATVIGHSKETVVCGSVGLLGIAWAFGGMIFVLVYCTAGISGGHINPAVTFGLFLARKVSLLRALVYMIAQCLGAICGVGLVKAFMKGPYNQFGGGANSVALGYNKGTALGAEIIGTFVLVYTVFSATDPKRSARDSHVPILAPLPIGFAVFMVHLATIPITGTGINPARSFGAAVIFNSNKVWDDQWIFWVGPFIGAAVAAAYHQYVLRAAAIKALGSFRSNPTN
notes: also called PM28A; spinach aquaporin
Take B1: the binding result is on record as “binds”.

For the origin of these results see US7919587 (HYDROGENE LUND, dated 2011).
